Values belong to the molecule of their own block, whether it stands above or below them.
Key:
[1] = molecular target: Flag-Avi-His-KCC2 (human potassium chloride co-transporter KCC2, N-terminally tagged) (human) (UniProt Q9H2X9); assay: cross-linking; purified KCC2 (5 µg) with glutaraldehyde 0-0.1% for 30 min at 4 °C, with or without DTT; SDS-PAGE and Western blot
[2] = molecular target: Flag-Avi-His-KCC2 (human potassium chloride co-transporter KCC2, N-terminally tagged) (human) (UniProt Q9H2X9); assay: SEC; 50 µl purified KCC2 at 1 mg/ml on Superdex 200 Increase 5/150 GL, PBS, CALX-R3 1.5 mM, DDM 0.6 mM; fractions analysed by Clear Native PAGE and Western blot
[3] = molecular target: Flag-Avi-His-KCC2 (human potassium chloride co-transporter KCC2, N-terminally tagged) (human) (UniProt Q9H2X9); assay: negative stain electron microscopy; gel filtration fractions of KCC2 monomers and dimers, 40 µg/ml in PBS, CALX-R3 1.5 mM, DDM 0.6 mM; 2% uranyl acetate; 2-D classes and 3-D models
[4] = molecular target: Flag-Avi-His-KCC2 (human potassium chloride co-transporter KCC2, N-terminally tagged) (human) (UniProt Q9H2X9); assay: native gel or EMSA; purified KCC2 in CALX-R3/DDM on 4-15% Clear Native PAGE (cathode buffer 7.5 mM imidazole, 0.05% deoxycholate, 0.01% DDM), 4 °C, Western blot with KCC2 antibody; with or without a freeze-thaw cycle
KCC2 = molecular target: T1, KCC2 (Homo sapiens, UniProt Q9H2X9); assay: SPR (Biacore S200), steady-state Langmuir fit on immobilized purified KCC2; format: binding
T1 construct: gene SLC12A5; N-terminal tagged Flag-Avi-His-KCC2, residues 1–1116 of NP_065759 (human KCC2 isoform 2), purified full length
T1 sequence (Q9H2X9 1-1116 isoform Q9H2X9-2): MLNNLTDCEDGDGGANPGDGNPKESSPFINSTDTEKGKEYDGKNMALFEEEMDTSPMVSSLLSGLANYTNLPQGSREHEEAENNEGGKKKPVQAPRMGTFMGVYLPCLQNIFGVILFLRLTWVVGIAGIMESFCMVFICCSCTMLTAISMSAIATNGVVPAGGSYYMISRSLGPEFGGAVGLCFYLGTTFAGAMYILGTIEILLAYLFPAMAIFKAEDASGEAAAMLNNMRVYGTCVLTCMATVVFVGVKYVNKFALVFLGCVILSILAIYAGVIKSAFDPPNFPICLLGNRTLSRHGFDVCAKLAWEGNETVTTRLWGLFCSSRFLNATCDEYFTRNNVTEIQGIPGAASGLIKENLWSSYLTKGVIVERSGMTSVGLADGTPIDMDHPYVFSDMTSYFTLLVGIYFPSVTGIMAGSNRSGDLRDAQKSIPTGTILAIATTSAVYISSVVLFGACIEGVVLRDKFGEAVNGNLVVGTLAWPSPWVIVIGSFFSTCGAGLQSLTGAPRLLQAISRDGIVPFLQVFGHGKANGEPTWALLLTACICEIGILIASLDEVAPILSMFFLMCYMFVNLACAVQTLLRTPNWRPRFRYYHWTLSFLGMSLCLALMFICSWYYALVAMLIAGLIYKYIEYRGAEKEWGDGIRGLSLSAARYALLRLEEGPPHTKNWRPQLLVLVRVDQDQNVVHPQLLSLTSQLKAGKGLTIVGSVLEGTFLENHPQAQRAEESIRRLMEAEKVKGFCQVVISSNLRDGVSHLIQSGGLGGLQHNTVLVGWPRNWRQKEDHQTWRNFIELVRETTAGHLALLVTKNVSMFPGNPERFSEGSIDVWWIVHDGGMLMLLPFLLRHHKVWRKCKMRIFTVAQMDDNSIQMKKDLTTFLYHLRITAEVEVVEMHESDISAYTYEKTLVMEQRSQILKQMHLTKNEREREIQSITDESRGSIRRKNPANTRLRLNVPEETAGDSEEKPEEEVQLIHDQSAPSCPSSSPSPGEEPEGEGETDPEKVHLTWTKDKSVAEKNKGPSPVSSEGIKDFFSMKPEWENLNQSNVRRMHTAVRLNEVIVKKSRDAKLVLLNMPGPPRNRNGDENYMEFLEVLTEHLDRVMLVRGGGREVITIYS
Text: SPR (Biacore S200), steady-state Langmuir fit on immobilized purified KCC2 on KCC2 | Concentration-dependent binding of VU0463271 (blue diamonds) and non-specific control compound (red circles) on immobilized purified KCC2.

[5] = molecular target: T2, recombinant mouse KCC2 (mouse), Q91V14; assay: native gel or EMSA; purified KCC2 in CALX-R3/DDM on 4-15% Clear Native PAGE (cathode buffer 7.5 mM imidazole, 0.05% deoxycholate, 0.01% DDM), 4 °C, Western blot with KCC2 antibody; with or without a freeze-thaw cycle; conditions: remark: other sources report otherwise
T2 chain: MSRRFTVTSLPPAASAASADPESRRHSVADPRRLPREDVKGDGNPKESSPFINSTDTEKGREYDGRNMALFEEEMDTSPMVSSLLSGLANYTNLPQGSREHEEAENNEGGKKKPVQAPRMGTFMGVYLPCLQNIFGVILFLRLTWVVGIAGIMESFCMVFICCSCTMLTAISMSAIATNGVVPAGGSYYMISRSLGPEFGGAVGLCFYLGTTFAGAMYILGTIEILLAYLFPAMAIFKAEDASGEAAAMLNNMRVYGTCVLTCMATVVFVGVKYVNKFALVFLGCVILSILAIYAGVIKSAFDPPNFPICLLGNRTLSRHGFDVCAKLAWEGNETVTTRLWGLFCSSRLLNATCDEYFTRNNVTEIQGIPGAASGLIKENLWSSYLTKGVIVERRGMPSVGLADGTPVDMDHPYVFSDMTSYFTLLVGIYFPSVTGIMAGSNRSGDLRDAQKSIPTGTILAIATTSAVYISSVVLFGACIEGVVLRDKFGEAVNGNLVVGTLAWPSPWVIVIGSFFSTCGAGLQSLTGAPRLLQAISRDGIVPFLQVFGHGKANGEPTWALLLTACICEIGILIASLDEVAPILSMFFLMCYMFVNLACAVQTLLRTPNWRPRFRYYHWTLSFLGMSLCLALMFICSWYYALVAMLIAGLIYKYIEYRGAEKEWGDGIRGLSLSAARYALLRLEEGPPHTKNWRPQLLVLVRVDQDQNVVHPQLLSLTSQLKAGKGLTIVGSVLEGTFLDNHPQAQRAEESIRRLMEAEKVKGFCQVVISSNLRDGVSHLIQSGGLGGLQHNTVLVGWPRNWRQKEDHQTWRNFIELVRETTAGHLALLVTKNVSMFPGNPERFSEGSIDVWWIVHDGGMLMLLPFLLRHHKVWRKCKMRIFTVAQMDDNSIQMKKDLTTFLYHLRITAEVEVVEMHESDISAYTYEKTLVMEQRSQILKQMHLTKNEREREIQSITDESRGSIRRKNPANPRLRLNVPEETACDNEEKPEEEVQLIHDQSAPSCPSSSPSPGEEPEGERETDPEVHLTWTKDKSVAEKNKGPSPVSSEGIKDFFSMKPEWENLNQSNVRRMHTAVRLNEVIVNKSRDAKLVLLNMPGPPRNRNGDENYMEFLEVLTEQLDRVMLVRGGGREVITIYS

- stoichiometry N [1]: 2
- stoichiometry N [2]: 2
- stoichiometry N [3]: 2
- stoichiometry N [4]: 2
Molecule: Flag-Avi-His-KCC2 (human potassium chloride co-transporter KCC2, N-terminally tagged) (from UniProt Q9H2X9-2 1-1116) (natural protein)

- Kd (KCC2): 3 ± 2 µM
Molecule: Cc1csc(N(C(=O)CSc2ccc(-c3ccccc3)nn2)C2CC2)n1 [VU0463271]

- stoichiometry N [5]: 2
B1: recombinant mouse KCC2, Q91V14 1-1138 (natural protein)
chain: T2 chain

Reference: article PMC5705597, “Molecular architecture of potassium chloride co-transporter KCC2” (Scientific Reports, 2017)
